For series [1], the target named is FLAG-tagged Sei1∆231-243, locking helix replaced by a flexible linker (S. cerevisiae) (UniProt Q06058). The experiment in a line: cryo-EM structure; single-particle cryo-EM of FLAG-purified protein in DDM/CHS (50 mM Tris.HCl pH7.4, 200 mM NaCl, 1 mM EDTA); C10 symmetry applied.
Series [2] deals with the molecule itself. Described as above.

“FLAG-tagged Sei1∆231-243, locking helix replaced by a flexible linker (from UniProt Q06058 1-230; Q06058 244-285) (natural protein)” returned a stoichiometry N in series [1] of 10.

B1: C-terminally 3xFLAG tagged Sei1 (yeast Seipin) (natural protein, S. cerevisiae)
chain: MKINVSRPLQFLQWSSYIVVAFLIQLLIILPLSILIYHDFYLRLLPADSSNVVPLNTFNILNGVQFGTKFFQSIKSIPVGTDLPQTIDNGLSQLIPMRDNMEYKLDLNLQLYCQSKTDHLNLDNLLIDVYRGPGPLLGAPGGSNSKDEKIFHTSRPIVCLALTDSMSPQEIEQLGPSRLDVYDEEWLNTIRIEDKISLESSYETISVFLKTEIAQRNLIIHPESGIKFRMNFEQGLRNLMLRKRFLSYIIGISIFHCIICVLFFITGCTAFIFVRKGQEKSKKHS
notes: Sei1, the yeast Seipin, S. cerevisiae; model built for residues 24-132 and 145-265; also called Sei1-FLAG; WT Sei1; source: S. cerevisiae, plasmid-borne, in detergent extract of crude membranes; not shown: 3xFLAG, C-terminal, kept; copies: 10
With B1, the “stoichiometry N” value in series [2] worked out at 10.

As a reminder, the stoichiometry N is the number of molecules, sites or subunits per partner or assembly.

The record behind these values is publication PMC8501077 (Nature Communications, 2021).
